According to paper PMC9079162:
pKd: −log10 of the molar value.

Molecular target: human complement regulatory factor H (hfH) (human) (UniProt P08603)
Test: SPR

Sequence of human complement regulatory factor H (hfH) (human) (P08603 19-1231): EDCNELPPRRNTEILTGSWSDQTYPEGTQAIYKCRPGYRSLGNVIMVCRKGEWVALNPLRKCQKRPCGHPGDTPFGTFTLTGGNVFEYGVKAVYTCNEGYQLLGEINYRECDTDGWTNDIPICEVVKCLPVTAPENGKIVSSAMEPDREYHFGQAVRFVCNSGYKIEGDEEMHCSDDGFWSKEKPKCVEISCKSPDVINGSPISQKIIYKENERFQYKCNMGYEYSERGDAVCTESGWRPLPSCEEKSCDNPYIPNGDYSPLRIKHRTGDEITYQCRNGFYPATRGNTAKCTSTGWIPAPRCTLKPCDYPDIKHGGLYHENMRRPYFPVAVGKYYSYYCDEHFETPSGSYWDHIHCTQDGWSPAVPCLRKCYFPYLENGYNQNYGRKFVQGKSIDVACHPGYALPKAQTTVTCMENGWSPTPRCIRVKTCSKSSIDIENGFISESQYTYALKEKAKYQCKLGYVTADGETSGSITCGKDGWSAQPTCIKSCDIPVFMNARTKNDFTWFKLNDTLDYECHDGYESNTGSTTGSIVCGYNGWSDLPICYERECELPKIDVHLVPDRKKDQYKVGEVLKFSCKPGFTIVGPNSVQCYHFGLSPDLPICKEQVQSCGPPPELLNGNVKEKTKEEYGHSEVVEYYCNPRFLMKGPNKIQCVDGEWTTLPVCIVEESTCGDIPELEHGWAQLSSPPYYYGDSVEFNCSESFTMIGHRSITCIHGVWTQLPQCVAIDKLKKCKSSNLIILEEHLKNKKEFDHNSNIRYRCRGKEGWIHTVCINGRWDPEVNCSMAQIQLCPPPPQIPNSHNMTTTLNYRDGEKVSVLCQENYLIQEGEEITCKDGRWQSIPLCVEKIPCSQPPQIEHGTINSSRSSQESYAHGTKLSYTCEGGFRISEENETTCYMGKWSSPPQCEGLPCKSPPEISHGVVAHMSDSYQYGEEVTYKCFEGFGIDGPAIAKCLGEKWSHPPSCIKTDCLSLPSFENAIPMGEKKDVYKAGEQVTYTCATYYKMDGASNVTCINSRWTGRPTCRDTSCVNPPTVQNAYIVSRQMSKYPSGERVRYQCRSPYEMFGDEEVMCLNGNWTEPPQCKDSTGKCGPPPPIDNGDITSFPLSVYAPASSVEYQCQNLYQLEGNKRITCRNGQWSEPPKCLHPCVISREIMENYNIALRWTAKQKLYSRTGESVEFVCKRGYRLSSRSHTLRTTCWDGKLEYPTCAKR

Question: “factor H binding protein (fHbp) variant1-2,3.x from MenB clinical isolate NL096 (from UniProt E6MV22 20-274) (natural protein)” was tested. Which pKd did it give?
Answer: 7.52
